# The supplement of paper PMC10567573
# ± gives the standard deviation.
# Assay: protein stability index of a GFP-peptide fusion (GPS, HEK-293T) (PSI 1-6); higher = more stable
# Settings: c terminus: a fixed tail appended
# 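Also: 24-mer peptide tiles fused after GFP, lentivirally expressed, FACS-sorted into six equal bins by GFP/DsRed ratio, decoded by Illumina sequencing, PSI is the read-weighted mean bin number.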
Sequence,protein stability index (treatment: DMSO),"protein stability index (treatment: MLN4924 1 uM, 8 h)"
SQCQMETKPLAIHPCGDKNCPAHW [ADAMTSL2],3.91 ± 0.62,4.53 ± 0.31
SQEAADTPDTRHPCSLGSSLVADY [YJU2B],4.34 ± 0.35,4.59 ± 0.21
SQHCKPEEGLEARGEALGLVGAQA [MAGEA3],4.73 ± 0.2,4.73 ± 0.22
SQRQAKELKLEQQEAAERESKLLR [LRRC45],5.17 ± 0.28,5.22 ± 0.1
SRELSLRPSRSGAQQLEEEGPMEE [EID1],5.58 ± 0.29,5.64 ± 0.12
SRETECSRVGKQSFIITLGCNSVL [CARM1],2.3 ± 0.66,2.09 ± 0.38
SREYKLVMLGAGGVGKSAMTMQFI [RIT1],2.51 ± 0.46,2.27 ± 0.42
SRGYRNHRSSRETRDYAPPSRGHA [RBMY1A1],4.63 ± 0.3,4.63 ± 0.4
SRILNEMRDQYEQMAEKNRRDAET [KRT16],4.65 ± 0.27,4.78 ± 0.27
SRKVTTNKLLLSIIILLELAILGG [VTI1B],2.98 ± 0.7,2.84 ± 0.65
SRSRSRSRSNSRSRSYSPRRSRGS [SRSF1],5.37 ± 0.24,5.6 ± 0.2
SSALACTLPTLPAKVYVGVKQEIA [NCF4],3.2 ± 0.2,3.1 ± 0.35
SSCVKYLIFLSNFPFSLLGLLALA [TSPAN10],2.94 ± 0.35,2.93 ± 0.35
SSFPPSPGPSPDVQLATLAQRVKE [AUP1],5.1 ± 0.26,5.05 ± 0.15
SSSDSDFDDEEPRKFYVHIKPAPA [FCHO1],4.5 ± 0.27,4.45 ± 0.084
SSSRPISPGLSYASHTVGFTPPTS [CCDC6],3.54 ± 0.22,3.74 ± 0.15
SSSSSFGSGFGGGYGGGLGAGFGG [KRT16],2.65 ± 0.46,2.89 ± 0.3
SSVICNDITAYLFGFFFGRTPLIK [CDS1],2.13 ± 1.2,2.02 ± 0.082
STCDTLGMADVGTVCDPARSCAIV [ADAMTS4],3.92 ± 0.34,3.69 ± 0.083
STNEITYGLPIMVTLMVAKWTGDF [CLCN6],3.16 ± 0.38,3.03 ± 0.45
STRGAARPAQAIGTQPRATKHKCR [SPACA9],5.13 ± 0.098,5.14 ± 0.36
STRLTRIHLREDLVQDQDLEAIRK [ZER1],4.67 ± 0.079,4.7 ± 0.14
SVHFDGETIEGAPPLWAASAAGHL [FEM1A],3.42 ± 0.07,3.47 ± 0.5

Sequence,protein stability index (treatment: DMSO),"protein stability index (treatment: MLN4924 1 uM, 8 h)"
SWCLKRYDLEYWAFHDGQRSRLRP [TRIM14],2.18 ± 0.25,2.33 ± 0.13
SWSIQMRQHHHQSSFPGSLPQETN,3.51 ± 0.1,3.53 ± 0.11
SYPRTPHTPGTPKSAILVPSEKKV [MAP2],4.6 ± 0.053,4.74 ± 0.26
SYSPASASSGGAGAAVGTGSSYPT [JUNB],4.41 ± 0.27,4.61 ± 0.094
SYVCRCKQGYILNSDQTTCRIQDL [MATN2],2.4 ± 0.31,2.46 ± 0.42
TAAGGQGGPGGPGSDKQQQQQHIE [NR2F2],5.34 ± 0.27,5.47 ± 0.19
TDDPTAGRSNAPITAPTEVEVMDE [CSNK1G3],5.67 ± 0.13,5.51 ± 0.22
TDGERVAEVAPEERENVAVAKLQE [SDE2],5.59 ± 0.34,5.49 ± 0.38
TEDCPTGSALTFREEQCAAYNHRT [ADAMTS4],5.09 ± 0.22,5.03 ± 0.12
TEHEKKQKLETDAMFRLEHGEADR [YJU2B],5.32 ± 0.12,5.46 ± 0.3
TELRLLGRTHSACDALRTLAEARR [RSAD1],3.46 ± 0.21,3.59 ± 0.18
TEQLWRIFAGVHDEKAKPRDRQQA [TLE6],3.45 ± 0.26,3.76 ± 0.23
TFDGSLFAVFPSLNEEQTLQEVPT [ETS2],3.69 ± 0.28,3.57 ± 0.18
TFFRLLLPEAPPKKFLTLGSKFRY [EPB41L3],2.23 ± 0.32,2.85 ± 1.4
TFPFKILGDSGLGPWQLNVFVCRV [P2RY14],3.47 ± 0.73,3.26 ± 1.5
TFSGDVQLAQDDIDGIQAIYGRSQ [MMP1],4.27 ± 0.21,4.55 ± 0.14
TFSLKTVLMIAIQLISRMEYVHSK [CSNK1G3],3.5 ± 0.67,3.16 ± 0.46
TGEVRTARALLEDDSDTQQVVVLV [PCDHGC5],2.5 ± 0.39,2.82 ± 0.27
TGFTVNVAWNGPRMGDADYLAAWH [HDAC6],2.43 ± 0.52,2.18 ± 0.26
TGIEESTDGMILGPEDLSYQIYDV [LARP4],3.76 ± 0.28,3.6 ± 0.29
TGILIFAIGVGQVDFNTLKSIGSE [MATN2],3.69 ± 0.069,3 ± 0.56
TGLVGLFVDFFVRLFTQLKFGVVQ [CLCN6],2.36 ± 0.36,2.54 ± 0.22
